Literature values, collected in US20060198900A1, “Bioactive Agent Compositions for Repair of Cell Injuries” (Nutritional Bioscience Limited, priority 2004, published 2006).

Test system: gastric damage
Conditions: Playford et al. 1995

B1: hSP: recombinant human spasmolytic polyptide (hSP) (protein, UniProt Q03403 24-129, looked up)
Trefoil factor 2: EKPSPCQCSRLSPHNRTNCGFPGITSDQCFDNGCCFDSSVTGVPWCFHPLPKQESDQCVMEVSDRRNCGYPGISPEECASRKCCFSNFIFEVPWCFFPKSVEDCHY
- reduction of gastric damage: 50%
